The results in this text go back to publication PMC5686162, “Non-canonical activation of OmpR drives acid and osmotic stress responses in single bacterial cells” (Nature Communications, 2017).

The target of assay [1] is EnvZc C277Y (S. Typhimurium) (UniProt P08982). The assay can be described thus: SEC; gel filtration profiles of EnvZc, EnvZc C277Y, OmpR, (OmpR + EnvZc) and (OmpR + EnvZc C277Y); Superose 12 10/300 GL for EnvZc, AKTA FPLC, 0.5 ml/min, 'suitable buffers'; fractions analysed by SDS-PAGE. (In general: In gel filtration, larger molecules generally elute earlier.)
Another assay addresses OmpR (UniProt P0AA16). The assay can be described thus: SEC; oligomeric state of OmpR alone under acidic conditions; Hiload 16/60 Superdex 75 pg for OmpR; OmpR buffer exchanged into 20 mM Tris, 200 mM NaCl.
In the next assay the target is T1, EnvZc ( (S. Typhimurium or E. coli …, UniProt P08982 1-450)).
T1 construct: EnvZ sensor histidine kinase, cytoplasmic domain (EnvZc); also called wild-type EnvZc; cytoplasmic domain of EnvZ
T1 sequence: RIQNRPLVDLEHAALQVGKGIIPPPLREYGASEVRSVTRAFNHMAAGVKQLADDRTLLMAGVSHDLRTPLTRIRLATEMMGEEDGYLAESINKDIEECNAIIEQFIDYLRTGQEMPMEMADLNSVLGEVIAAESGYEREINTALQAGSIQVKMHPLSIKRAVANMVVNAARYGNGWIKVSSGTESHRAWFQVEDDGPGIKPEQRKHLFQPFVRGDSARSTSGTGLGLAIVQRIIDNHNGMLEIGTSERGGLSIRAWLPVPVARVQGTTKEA
The assay can be described thus: SEC; gel filtration profiles of EnvZc, EnvZc C277Y, OmpR, (OmpR + EnvZc) and (OmpR + EnvZc C277Y); Superose 12 10/300 GL for EnvZc, AKTA FPLC, 0.5 ml/min, 'suitable buffers'; fractions analysed by SDS-PAGE. To be noted: both partners purified.

As a reminder, the stoichiometry N is a count of units in the complex or per binding partner. In the case of “EnvZc C277Y (from UniProt P08982 1-450) (domain or fragment)”, the stoichiometry N in assay [1] amounted to 2.
As for “OmpR (from UniProt P0AA16 1-239) (natural protein)”, in the assay with OmpR, the stoichiometry N turned out to be 2.

B1: OmpR (natural protein)
chain: MQENYKILVVDDDMRLRALLERYLTEQGFQVRSVANAEQMDRLLTRESFHLMVLDLMLPGEDGLSICRRLRSQSNPMPIIMVTAKGEEVDRIVGLEIGADDYIPKPFNPRELLARIRAVLRRQANELPGAPSQEEAVIAFGKFKLNLGTREMFREDEPMPLTSGEFAVLKALVSHPREPLSRDKLMNLARGREYSAMERSIDVQISRLRRMVEEDPAHPRYIQTVWGLGYVFVPDGSKA
notes: OmpR, response regulator of the EnvZ-OmpR two-component system; The unphosphorylated protein was used in gel filtration; also called His-OmpR; source: E. coli BL21 (DE3), from pET15b, purified
Take B1: the “stoichiometry N” value with EnvZc is 2 OmpR molecules per EnvZc dimer.
